Results on 6 substances are retold here after patent publication US20230287454.

Holding throughout (assay): cell_activity
For data set [1], the target named is CD52 TALEN Right (synthetic construct) (UniProt Q56830). Particulars: CD52-negative T cells, paired with CD52 left, simultaneous electroporation.
Data set [2] addresses TRAC TALEN Left (synthetic construct) (UniProt Q56830). Particulars: TCR-negative T cells, paired with TRAC right, simultaneous electroporation with CD38 and CD52 TALEN.
The subject of data set [3] is CD52 TALEN Left (synthetic construct). The conditions noted are these: CD52-negative T cells, paired with CD52 right, simultaneous electroporation.
Data set [4] concerns the target CD38 TALEN Left (synthetic construct) (UniProt Q56830). The conditions noted are these: CD38-negative T cells, paired with CD38 right, simultaneous electroporation.
The target in data set [5] is TRAC TALEN Right (synthetic construct) (UniProt Q56830). The conditions noted are these: TCR-negative T cells, paired with TRAC left, simultaneous electroporation.
For data set [6], the target named is CD38 TALEN Right (synthetic construct) (UniProt Q56830). Particulars: CD38-negative T cells, paired with CD38 left, simultaneous electroporation.

In turn, CD52 right half-site returned an activity in data set [1] of 57%.
On to TRAC left half-site, for which the activity in data set [2] was 67.8%.
Consider CD52 left half-site, for which the activity in data set [3] worked out at 57%.
Consider CD38 left half-site, for which the activity in data set [4] amounted to 66.1%.
Substance TRAC right half-site registered an activity in data set [5] of 67.8%.
In data set [6], CD38 right half-site came in with an activity of 66.1%.
